From article PMC2289474

How the values were obtained:
[1] = target: laminin (Engelbreth-Holm-Swarm tumor laminin, free of entactin) (mouse (endogenous in EHS tumor)) (UniProt P19137); assay: sedimentation assay of polymerization
[2] = target: laminin/entactin complex (laminin-nidogen complex) of the EHS tumor (mouse (endogenous in EHS tumor)) (UniProt P19137); assay: extraction of laminin from tissue matrix
[3] = target: laminin/entactin complex (laminin-nidogen complex) of the EHS tumor (mouse (endogenous in EHS tumor)) (UniProt P19137); assay: sedimentation assay of polymerization

Row | critical concentration of polymerization [1] [mg/mL] | concentration of free laminin over the EHS matrix in buffer at 37 C [2] [mg/mL] | percent of total laminin of the EHS matrix extracted by 10 mM EDTA [2] [%] | critical concentration of polymerization [3] [mg/mL] | Substance
1 | 0.1 | – | – | – | laminin (Engelbreth-Holm-Swarm tumor laminin, free of entactin), P19137 25-3083; P02469 22-1786; P02468 34-1607
2 | – | 0.08 | 79 | 0.1 | laminin/entactin complex (laminin-nidogen complex) of the EHS tumor, P19137 25-3083; P02469 22-1786; P02468 34-1607; P10493 29-1245
